Assay: soluble on expression in E. coli; label from the status in PepcDB or PDB records

Sequence | soluble on expression in E. coli
EKAEDCWELQISPELLAHGRQKILDLLNEGSARDLRSLQRIGPKKAQLIVGWRELHGPFSQVEDLERVEGITGKQMESFLKANILGLAAGQ | soluble
MKEKIITYLEEKGKSSVDDLASSLDMAGAQKFPSLIKEISKLESKGKLRFEQDGTISLRKKKEKKDQVTVTGIFRANKAGFGFVSIDEAEEDLFIGRNDVGHAVDGDTVEVAIKKVANRLKGTAAEARVVKIVEHSLKAVVGRFVLDDEKPPYIGYIKSKNQKITQKIYIKKEPIVLDGTEIIKVAIEKYPTRRYDYFVASVEDVIGHQDDVGIDVLEVLESMDIVSEFPDAVLKEAQSVPDAPSEKDLIGRVDLRKEITFTIDGADAKDLDDAVHVKLLDNGNFELGVHIADVSYYVKEGSALDGEALARGTSVYVTDRVVPMLPERLSNGICSLNPNLDRLTQSAIMEIDKHGRVLHYQITQTVINTSFRMTYSDVNAIIAGDKELTEQYDKIVPSIHYMVTLHKILEKMRERRGALNFDTSEAKILVNDKGFPMDIVLRQRGLAERMIESFMLAANECVAEHFAKKNLPFIYRIHEEPKAEKLQKFMDYASIFGVSIQGTASKISQTALQDFMKKIEGQPGSDVLSMMLLRSMQQARYSEYNHGHYGLAAQYYTHFTSPIRRYPDLLVHRLVREYDKANSEKVEHFAQIIPEIASQTSSLERRAIDAERVVEAMKKAEYMEEYVGQEFTGVVSSVVKFGLFVELPNTIEGLIHMTTLPEFYQFNERTLSLQGEKSGKVFRVGQSIKVKVLKADKETGDIDFAYLPSDFDIIEKLSRSKKEKPRPSRRSGDSKTKANKRSKRSALSQKKKKKPFYKEAVKKGGKHGKGSRKRRRSK | soluble
MAAPSMKERQACWGARDLYWRCLDDNAEDAARCQKLRSSFEASCPQQWIKYFDKRRDYLKFKEKFEAGGFQSSQSTENS | soluble
MMPKVYGSLVDNETRCTHYHTFLDVIAIKFKCCNKYYPCYQCHEEHETHPIKRWSEQEFDEKAIMCGVCKHEMSIQDYMMTELCPKCQAHFNSRCKFHYHLYFELLEHHHHHH | not soluble
MFEKVKVSTCFHVTLLKDYIVFYVSNNLNFASRWPRRRRGQRLLPTALRAMMLNPTEALLAEVSKARTSGARITVEEFIPIYKKVEAACGRSTTLKEFQTLLSHFDREGNGQIMLMELKSMLQNGGEKMTNQEARALKPATGLDTIYRNLNFNHKFTLDHSAIGFLRTNQFFDVQMIPVSRFFTVQDPSNALLSYTQKGIDFFEKLGQFSKEKAAIEEEYSTKLRSLAKKYAKKSEEDDEILKSVSYTSSFNSFLQQLDQIATRHQTSAEHIRGGVVSYVASKTCQMRSSRKNAINDLKTINDKLEDQINEMCKSGKCYLKSFKDAENSYQKFYKADKNLEISRLELEKARALANARNEACELAKQDYSALVRKTNAEQKRYHVELLPVIFARLKAVDKECIADMRQVLQKIVSFDDSLADSTEECRKIMQREVGKIDAEGDAQLVLKSVEATIEQPAPFEIEDLGDPKNCDSRTNDSADGSGGKLLKSSPSKNRIIRNFLGILKEKEADEKPEASNNDQLMYTDKSKPAHVRLSCLRSKIRDMEKQLEQAIQGREGITRLQQAYYTNPQHGNPSACTEPLISYAKKIEKLKMDIHNLKEFYAMLEMSVEEGQERSFGGRDTPDTTRSMSGSSTNQSSSKTIEDVLSGEAGNSSSADDSSKNILRQLFTTPKRLISSPKTSKSSTPTPLRRRAEISSPKILRSSFSGAIRKSLSTPDSVKVETAVTVTALFEFAKSSAETMSIEQGEILLVLEHDHGDGWTRTKNCRKHNEESGFVPTSYLQFPQ | soluble
MQVSRFLTSFHRLSTALPASTEKYYFETVKHDNRNEVVDFLNNNFRVEEPLSKAAGMTESDIQSCFDGVFERVLKNEVSILARSKQSDEIVGCMLNSVWKRNDPKKNEDEAEDFEFGGDRKGVMTIGEILNELHESFWKLRPDQHTVLHFEISSVNKNHQRQGLASKFMNWTEKKELLKVIEASSIVAEASSLANQILLSKRGYETVASTLLSSRIDVNGKQILVCDDGTDRVDLVFKELN | not soluble
MAKRKAEDTQSDKMATAEKVAQNDYTIGLVDPVKDYQKLIETRVQVDEIVDDDVTKENFDRTAAAARDVIWRLLFDEAGTSQSNTEKASQLLEEYRGDACFYDPTPYNEWIVKLRDEVLKKELLDFWRDVLVKKQLGPCWSRDSDLFDSDDTPPLEFYAHAGCTAPFAASLKVRAALEEQASLDQDGPATPTTPGELSADDAAALSGEFEATLTKENPLEEYRTLMKRFVLTKIIVPDSVHQASVKKIAAAAREIIWKLLFDGTPSAEDQNKAAELLQEYKGDAGFYGPDDYNSWIFNLRDEVLTKELLDFWRDKMVKMELGPSCARDSDYYDNEDPLPFEFYEKAGCKAPFEGPVNDD | soluble
